Experimental data taken from paper PMC4788495 (Journal of bioenergetics and biomembranes, 2008).
Each block holds one binder with its values, some of them ahead of it.

B1: cytochrome b S287R, subunit of the double mutant S287R(cyt b)/V135S(ISP) Rsbc1 (natural protein, R. sphaeroides, UniProt Q02761 1-445, looked up)
chain: MSGIPHDHYEPRTGIEKWLHSRLPIVALAYDTIMIPTPRNLNWMWIWGVVLAFCLVLQIVTGIVLAMHYTPHVDLAFASVEHIMRNVNGGFMLRYLHANGASLFFIAVYLHIFRGLYYGSYKAPREVTWIVGMLIYLAMMATAFMGYVLPWGQMSFWGATVITGLFGAIPGIGHSIQTWLLGGPAVDNATLNRFFSLHYLLPFVIAALVAIHIWAFHSTGNNNPTGVEVRRTSKAEAQKDTVPFWPYFIIKDVFALAVVLLVFFAIVGFMPNYLGHPDNYIEANPLRTPAHIVPEWYFLPFYAILRAFTADVWVVQIANFISFGIIDAKFFGVLAMFGAILVMALVPWLDTSPVRSGRYRPMFKIYFWLLAADFVILTWVGAQQTTFPYDWISLIASAYWFAYFLVILPILGAIEKPVAPPATIEEDFNAHYSPATGGTKTVVAE
B5: cytochrome b subunit of the wild-type R. sphaeroides cytochrome bc1 complex (Rsbc1) (natural protein)
chain: GIPHDHYEPRTGIEKWLHSRLPIVALAYDTIMIPTPRNLNWMWIWGVVLAFCLVLQIVTGIVLAMHYTPHVDLAFASVEHIMRNVNGGFMLRYLHANGASLFFIAVYLHIFRGLYYGSYKAPREVTWIVGMLIYLAMMATAFMGYVLPWGQMSFWGATVITGLFGAIPGIGHSIQTWLLGGPAVDNATLNRFFSLHYLLPFVIAALVAIHIWAFHSTGNNNPTGVEVRRTSKAEAQKDTVPFWPYFIIKDVFALAVVLLVFFAIVGFMPNYLGHPDNYIEANPLSTPAHIVPEWYFLPFYAILRAFTADVWVVQIANFISFGIIDAKFFGVLAMFGAILVMALVPWLDTSPVRSGRYRPMFKIYFWLLAADFVILTWVGAQQTTFPYDWISLIASAYWFAYFLVILPILGAIEKPVAPPATIEEDFNA

Experiments:
crystal structure [1] = target: the molecule itself; test: crystal structure
[2] = target: B5; test: SEC
[3] = target: B1; test: crystal structure
[4] = target: B5; test: crystal structure
crystal structure [5] = target: the molecule itself; test: crystal structure; remark: listed apart in the source

Binder: B1
stoichiometry N (crystal structure [1]): 2

Binder: B5
binding result (crystal structure [5]): binds

Other lines, results leading:

binding result [2]: binds | binding result [3]: binds
B2: cytochrome c1 subunit of the R. sphaeroides cytochrome bc1 complex (Rsbc1), his-tag at the C-terminus (natural protein, UniProt Q02760 23-285, looked up)
chain: AGGGHVEDVPFSFEGPFGTFDQHQLQRGLQVYTEVCAACHGMKFVPIRSLSEPGGPELPEDQVRAYATQFTVTDEETGEDREGKPTDHFPHSALENAADLSLMAKARAGFHGPMGTGISQLFNGIGGPEYIYSVLTGFPEEPPKCAEGHEPDGFYYNRAFQNGSVPDTCKDANGVKTTAGSWIAMPPPLMDDLVEYADGHDASVHAMAEDVSAFLMWAAEPKLMARKQAGFTAVMFLTVLSVLLYLTNKRLWAGVKGKKKTNV

binding result [3]: binds
B3: Rieske iron-sulfur protein V135S, subunit of the double mutant S287R(cyt b)/V135S(ISP) Rsbc1 (natural protein, R. sphaeroides, UniProt Q02762 1-187, looked up)
chain: MSNAEDHAGTRRDFLYYATAGAGAVATGAAVWPLINQMNPSADVQALASIFVDVSSVEPGVQLTVKFLGKPIFIRRRTEADIELGRSVQLGQLVDTNARNANIDAGAEATDQNRTLDEAGEWLVMWGVCTHLGCSPIGGVSGDFGGWFCPCHGSHYDSAGRIRKGPAPENLPIPLAKFIDETTIQLG

binding result [4]: binds
B4: Rieske iron-sulfur protein subunit of the wild-type R. sphaeroides cytochrome bc1 complex (Rsbc1) (natural protein)
chain: GTRRDFLYYATAGAGAVATGAAVWPLINQMNPSADVQALASIFVDVSSVEPGVQLTVKFLGKPIFIRRRTEADIELGRSVQLGQLVDTNARNANIDAGAEATDQNRTLDEAGEWLVMWGVCTHLGCVPIGGVSGDFGGWFCPCHGSHYDSAGRIRKGPAPENLPIPLAKFIDETTIQLG
